# Columns and labels:
# [1] = Measurement of the secondary structure of each peptide by a CD spectrum; assay type: physicochemical; details: peptide 100 μM, 20 mM Tris-HCl buffer (pH 7.4); for secondary structure by CD spectrum: CD at 25° C.; for CD spectral change with time: incubated at ordinary temperatures
# Protocol: The peptide (10-4F), (10-3L), (10-3F), (10-3A), Aβ (14-23) or Aβ (10-35) synthesized in Example 1, which was contained alone in an aqueous solution, was evaluated for its ability to form amyloid fibrils. The secondary structure was examined using a CD spectrum, and the ability to form amyloid fibrils was evaluated with dye thioflavin T (ThT) binding specifically to amyloid fibrils to emit fluorescence, under a transmission electron microscope (TEM).
# Solutions of the respective synthesized peptides, 2 mM, in trifluoroethanol (TFE) were prepared and used as stock solutions respectively. Each stock solution was diluted to a final peptide concentration of 100 μM with 20 mM Tris-HCl buffer (pH 7.4), then incubated at ordinary temperatures, and measured for CD spectrum at 25° C. (FIG. 1).
# [2] = biological target: T1, Aβ (10-35) formed into amyloid fibrils (nucleus) (Homo sapiens, UniProt P05067); experiment: Amplification, with the artificial peptide, of formation of fibrils of Aβ (10-35) formed into fibrils, monitored with ThT; assay type: biochemical; details: peptide 200 μM, Aβ (10-35) nucleus 10 μM, room temperature; for increase in ThT fluorescent intensity in the presence of the nucleus: after 1 day
# T1 construct: peptide [Aβ (10-35)] consisting of 10 to 35 residues of amyloid β peptide; made in house; host or cells: chemical synthesis (Fmoc solid phase method)
# Protocol: The amplification of formation of fibrils of Aβ (10-35) formed into amyloid fibrils was attempted by using each of the artificial peptides synthesized in Example 1. A small amount of Aβ (10-35) previously formed into fibrils under the condition in (1-2) above was added to a solution of the artificial peptide, and the amplification of formation of fibrils was monitored with ThT.
# Starting solution used: [peptide]=2 mM solution in TFE
# Concentrations: [peptide]=200 μM, [Aβ (10-35) (nucleus)]=10 μM • (20 mM Tris-HCl buffer (pH 7.4))
# (§1) Aβ (10-35) (nucleus) was homogenized by sonication for 1 hour before dilution.
# Temperature: room temperature
# Concentration: [peptide]=5 μM, [ThT]=6 μM • (20 mM Tris-HCl buffer (pH 7.4))
# Stirring conditions: The whole volume of the reaction mixture was sufficiently stirred with a Pasteur pipette before sampling, and then sufficiently stirred in a cell with a Pasteur pipette.
# Excitation wavelength: 440 nm, detection wavelength: 482 nm.
# [3] = biological target: T1, Aβ (10-35) formed into amyloid fibrils (nucleus); experiment: Amplification of fibrils of Aβ (10-35) formed into amyloid fibrils, measurement using a plate reader; assay type: biochemical; details: high to low; for rank of difference in fluorescence intensity between nucleus added and not added (ability to amplify fibrils): after completion of fluorescent intensity change; for rank of increase in fluorescent intensity among peptides to which the nucleus had been added: with Aβ (10-35) nucleus
# Protocol: A test for the amplification of fibrils of Aβ (10-35) formed into amyloid fibrils by using the artificial peptide of the present invention in Example 2 was attempted using a plate reader.
# Starting solution used: [peptide]=5 mM solution in DMSO
# Concentrations: [peptide]=20 μM, [Aβ (10-35) (nucleus)]=2.5 μM • (20 mM Tris-HCl buffer (pH 7.4))
# as §1
# Concentrations: [peptide]=18 μM, [ThT]=25 μM • (20 mM Tris-HCl buffer (pH 7.4))
# Stirring conditions: The whole volume of the reaction mixture was stirred 3 times for 2 seconds with a vortex and then (100 μl×2) was stirred with a micropipette in a well before measurement.
# Excitation wavelength: 440 nm, detection wavelength: 490 nm.
# [4] = Evaluation, with ThT, of the ability of the artificial peptide used alone to form amyloid fibrils; details: peptide 200 μM alone; for time required to finish formation of fibrils at 40° C. compared with ordinary temperatures: incubation at 40° C.; for time having elapsed until the increase in fluorescent intensity was finished: incubation at room temperature
# Protocol: The peptide (10-4F), (10-3L), (10-3F), (10-3A), Aβ (14-23) or Aβ (10-35) synthesized in Example 1, which was contained alone in an aqueous solution, was evaluated for its ability to form amyloid fibrils. The secondary structure was examined using a CD spectrum, and the ability to form amyloid fibrils was evaluated with dye thioflavin T (ThT) binding specifically to amyloid fibrils to emit fluorescence, under a transmission electron microscope (TEM). The ability of each artificial peptide obtained in Example 1 to form amyloid fibrils when used alone was evaluated using ThT. Starting solution used: [peptide]=2 mM solution in TFE Concentration: [peptide]=200 μM in 20 mM Tris-HCl buffer (pH 7.4) Temperature: room temperature or 40° C. Concentrations: [peptide]=5 μM, [ThT]=6 μM (20 mM Tris-HCl buffer (pH 7.4)) Temperature: room temperature Stirring conditions: The whole volume of the reaction mixture was sufficiently stirred with a Pasteur pipette before sampling, and then sufficiently stirred in a cell with a Pasteur pipette. Excitation wavelength: 440 nm, detection wavelength: 482 nm. The formation of fibrils was slow at ordinary temperatures to make it difficult to monitor the change with time, so the ability of each artificial peptide used alone to form fibrils was then evaluated at an elevated temperature of 40° C. estimated to accelerate formation of fibrils.
Substance,secondary structure by CD spectrum [1],CD spectral change with time [1],increase in ThT fluorescent intensity in the presence of the nucleus [2],rank of difference in fluorescence intensity between nucleus added and not added (ability to amplify fibrils) [3],rank of increase in fluorescent intensity among peptides to which the nucleus had been added [3],time required to finish formation of fibrils at 40° C. compared with ordinary temperatures [4],time having elapsed until the increase in fluorescent intensity was finished [4],fluorescent intensity with the nucleus relative to that in the absence of the nucleus [2]
"Aβ (10-35): peptide consisting of 10 to 35 residues of amyloid β peptide, used as the nucleus of amyloid fibril (YEVHHQKLVFFAEDVGSNKGAIIGLM; Amyloid-beta protein 42; UniProt P05067 681-706, looked up, fragment) [reference compound]",spectra unique to β-sheet structure,increased signals with time,–,–,–,–,–,–
Ac-Lys-Gln-Lys-Leu-Leu-Leu-Phe-Leu-Glu-Glu-NH2 (Ac-KQKLLLFLEE-NH2) [10-4F],spectra unique to β-sheet structure,increased signals with time,significant increase in fluorescent intensity,"order of 10-3L, 10-4F, 10-3F, and 10-3A",largest increase in fluorescent intensity,hardly changed,about 6 days,–
"Aβ (14-23): peptide consisting of 14 to 23 residues of amyloid β peptide (HQKLVFFAED; Amyloid-beta protein 42; UniProt P05067 685-694, looked up, fragment)",spectra unique to random coil state,no spectral change with time,–,–,–,significantly shortened,–,–
Ac-Lys-Gln-Lys-Leu-Leu-Leu-Leu-Leu-Glu-Glu-NH2 (Ac-KQKLLLLLEE-NH2) [10-3L],spectra unique to β-sheet structure,increased signals with time,significant increase in fluorescent intensity,highest,"order of 10-4F, 10-3L, 10-3F, and 10-3A",significantly shortened,3 days,twice as high
Ac-Lys-Gln-Lys-Leu-Leu-Phe-Leu-Leu-Glu-Glu-NH2 (Ac-KQKLLFLLEE-NH2) [10-3F],spectra unique to β-sheet structure,increased signals with time,no increase in fluorescent intensity,"order of 10-3L, 10-4F, 10-3F, and 10-3A","order of 10-4F, 10-3L, 10-3F, and 10-3A",hardly changed,about 6 days,–
Ac-Lys-Gln-Lys-Leu-Leu-Ala-Leu-Leu-Glu-Glu-NH2 (Ac-KQKLLALLEE-NH2) [10-3A],spectra unique to random coil state,no spectral change with time,no increase in fluorescent intensity,"order of 10-3L, 10-4F, 10-3F, and 10-3A","order of 10-4F, 10-3L, 10-3F, and 10-3A",–,–,–

# Source: patent US20060235199A1, “Reagent for amplifying amyloid fibrosis of amyloid ss-protein” (priority 2003, published 2006)
